Read-outs that look alike come from different tables or passages of the source.
What was measured:
[1] = biological target: T1, Human EphA2 (ephrin receptor A2) on cells (human, UniProt P29317 25-976); assay: cell-based or functional assay
[2] = biological target: T1, Human EphA2 (ephrin receptor A2) on …; assay: flow cytometry, A549 cells
Method: (§1) Surface binding of the antibodies to in vitro grown cell lines was assessed by flow cytometry. Tumor cells were detached from their culture plate using Versene and counted. Cells were staining in BSA-containing buffer with primary antibody for 30 minutes at 4° C. with shaking. Following, cells were washed and stained with secondary PE-labeled antibody for 30 minutes at 4° C. with shaking. Before analysis on an Intellicyt iQue3 scanner, cells were counterstained with DAPI. MedFI values from live, single cells was expressed as fold over isotype control.

[3] = biological target: T1, Human EphA2 (ephrin receptor A2) on …; assay: cell-based or functional assay; remark: listed apart in the source
[4] = biological target: T1, Human EphA2 (ephrin receptor A2) on …; assay: cell-based or functional assay; remark: listed apart in the source
[5] = biological target: T1, Human EphA2 (ephrin receptor A2) on …; assay: cell-based or functional assay; remark: listed apart in the source
[6] = biological target: T1, Human EphA2 (ephrin receptor A2) on …; assay: flow cytometry on A549 cells
Method: as §1

T1 sequence (P29317 25-976): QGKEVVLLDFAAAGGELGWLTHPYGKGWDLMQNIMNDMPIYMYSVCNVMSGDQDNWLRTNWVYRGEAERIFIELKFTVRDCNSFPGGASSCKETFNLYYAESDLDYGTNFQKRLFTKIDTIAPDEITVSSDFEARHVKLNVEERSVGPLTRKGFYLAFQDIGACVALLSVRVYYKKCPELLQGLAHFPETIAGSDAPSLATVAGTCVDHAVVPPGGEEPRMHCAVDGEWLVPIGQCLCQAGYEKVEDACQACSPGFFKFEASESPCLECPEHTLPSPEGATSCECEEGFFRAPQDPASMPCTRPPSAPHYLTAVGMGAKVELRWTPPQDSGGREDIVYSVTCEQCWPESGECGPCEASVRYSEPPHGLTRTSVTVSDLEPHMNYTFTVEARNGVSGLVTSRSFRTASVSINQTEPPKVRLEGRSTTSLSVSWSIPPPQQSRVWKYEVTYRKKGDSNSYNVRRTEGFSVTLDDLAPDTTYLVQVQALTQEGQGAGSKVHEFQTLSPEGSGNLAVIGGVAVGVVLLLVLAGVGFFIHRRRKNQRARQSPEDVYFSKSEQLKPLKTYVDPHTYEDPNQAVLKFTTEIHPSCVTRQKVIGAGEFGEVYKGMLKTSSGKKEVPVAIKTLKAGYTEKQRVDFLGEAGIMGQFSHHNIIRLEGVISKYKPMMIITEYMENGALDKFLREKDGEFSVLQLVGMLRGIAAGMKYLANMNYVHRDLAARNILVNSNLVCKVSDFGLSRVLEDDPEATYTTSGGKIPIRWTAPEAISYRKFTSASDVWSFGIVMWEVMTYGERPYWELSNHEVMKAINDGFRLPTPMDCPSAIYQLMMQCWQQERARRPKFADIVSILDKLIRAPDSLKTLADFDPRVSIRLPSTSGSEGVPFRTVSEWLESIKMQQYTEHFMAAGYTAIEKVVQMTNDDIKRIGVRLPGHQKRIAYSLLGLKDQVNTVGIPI

B1: AB-010143 (antibody, mouse IgG2a, V domains shown)
VH: QVQLQQWGAGLLKPSETLSLTCAVYGGSFSDYYWSWIRQPPGKGLEWIGEVNHRGSINYNNYNPSLKSRVTISVDTSKNQFSLKLTSVTAADTAVYYCAKPLRPHCTNGVCYSGDAFDIWGQGTMVTVAS
VL: SYVLTQPPSVSVAPGQTARITCGGNNIGSKNVHWYQQKPGQAPVLVVYDDSDRPSGIPEQFSGSNSGNTATLTISRVEAGDEADYYCQVWDSSSDHVVFGGGTKLTVL
[1]
  ADCC EC50: 25.1 nM

B2: AB-010145 (antibody, mouse IgG2a, V domains shown)
VH: QVQLQQWGAGLLKPSETLSLTCAVYGGSFSDYYWSWIRQPPGKGLEWIGEVNHRGSINYNNYNPSLKSRVTISVDTSKNQFSLKLSSVTAADTAVYYCAKPLRPHCTNGVCYSGDAFDIWGQGTMVTVAS
VL: SYVLTQPPSVSVAPGQTARITCGGNNIGSKNVHWYQQKPGQAPVLVVYDDSDRPSGIPEQFSGSNSGNTATLTISRVEAGDEADYYCQVWDSSSDHLVFGGGTKLTVL
[1]
  ADCC EC50: 48.9 nM

B3: AB-010150 (antibody, mouse IgG2a, V domains shown)
VH: QVQLQQWGAGLLKPSETLSLTCAVYGGSFSDYYWSWIRQPPGKGLEWIGEVNHRGSINYNNYNPSLKSRVTISVDTSKNQFSLKLSSVTAADTAVYYCAKPLRPHCTNGVCYSGDAFDIWGQGTMVTVSS
VL: SYVLTQPPSVSVAPGQTARITCGGNNIGSKNVHWYQQKPGQAPVLVVYDDSDRPSGIPEQFSGSNSGNTATLTISRVEAGDEADYYCQVWDSSSDHLVFGGGTKLTVL
[1]
  ADCC EC50: 65.9 nM

B4: AB-010148 (antibody, mouse IgG2a, V domains shown)
VH: QVQLQQWGAGLLKPSETLSLTCAVYGGSFSDYYWSWIRQPPGKGLEWIGEINHRGSINYNNYNPSLKSRVTISVDTSKNQFSLKLSSVTAADTAVYYCAKPLRPHCTNGVCYSGDAFDIWGQGTMVTVAS
VL: SYVLTQPPSVSVAPGQTARITCGGNNIGSKNVHWYQQKPGQAPVLVVYDDSDRPSGIPEQFSGSNSGNTATLTISRVEAGDEADYYCQVWDSSSDHLVFGGGTKLTVL
[1]
  ADCC EC50: 45 nM

B5: AB-010144 (antibody, mouse IgG2a, V domains shown)
VH: QVQLQQWGAGLLKPSETLSLTCAVYGGSFSDYYWSWIRQPPGKGLEWIGEINHRGSINYNNYNPSLKSRVTISVDTSKNQFSLKLTSVTAADTAVYYCAKPLRPHCTNGVCYSGDAFDIWGQGTMVTVAS
VL: SYVLTQPPSVSVAPGQTARITCGGNNIGSKNVHWYQQKPGQAPVLVVYDDSDRPSGIPEQFSGSNSGNTATLTISRVEAGDEADYYCQVWDSSSDHLVFGGGTKLTVL
[1]
  ADCC EC50: 35.8 nM

B6: AB-010141 (antibody, mouse IgG2a, V domains shown)
VH: QVQLQQWGAGLLKPSETLSLTCAVYGGSFSGYYWSWIRQPPGKGLEWIGEVNHRGSINYNNYNPSLKSRVTISVDTSKNQFSLKLTSVTAADTAVYYCAKPLRPHCTNGVCYSGDAFDIWGQGTMVTVAS
VL: SYVLTQPPSVSVAPGQTARITCGGNNIGSKNVHWYQQKPGQAPVLVVYDDSDRPSGIPEQFSGSNSGNTATLTISRVEAGDEADYYCQVWDSSSDHLVFGGGTKLTVL
[1]
  ADCC EC50: 4.6 nM

B7: AB-010146 (antibody, mouse IgG2a, V domains shown)
VH: QVQLQQWGAGLLKPSETLSLTCAVYGGSFSDYYWSWIRQPPGKGLEWIGEVNHRGSINYNNYNPSLKSRVTISVDTSKNQFSLKLTSVTAADTAVYYCAKPLRPHCTNGVCYSGDAFDIWGQGTMVTVSS
VL: SYVLTQPPSVSVAPGQTARITCGGNNIGSKNVHWYQQKPGQAPVLVVYDDSDRPSGIPEQFSGSNSGNTATLTISRVEAGDEADYYCQVWDSSSDHLVFGGGTKLTVL
[1]
  ADCC EC50: 66.8 nM

B8: AB-010151 (antibody, mouse IgG2a, V domains shown)
VH: QVQLQQWGAGLLKPSETLSLTCAVYGGSFSDYYWSWIRQPPGKGLEWIGEINHRGSINYNNYNPSLKSRVTISVDTSKNQFSLKLSSVTAADTAVYYCAKPLRPHCTNGVCYSGDAFDIWGQGTMVTVSS
VL: SYVLTQPPSVSVAPGQTARITCGGNNIGSKNVHWYQQKPGQAPVLVVYDDSDRPSGIPEQFSGSNSGNTATLTISRVEAGDEADYYCQVWDSSSDHLVFGGGTKLTVL
[1]
  ADCC EC50: 33.3 nM

B9: AB-009808 (antibody, mouse IgG2a, V domains shown)
VH: QVQLQQWGAGLLKPSETLSLTCAVYGGSFSDYYWSWIRQPPGKGLEWIGEINHSGSTNYNPSLKSRVTISVDPSKNQFSLKLTSVTAADTAVYYCAKPFRPHCTNGVCYSGDAFDIWGQGTMVTVSS
VL: SYVLTQPPSVSVAPGQTARITCGGNNIGSKNVHWYQQKPGQAPVLVVYDDSDRPSGIPEQFSGSNSGNTATLTISRVEAGDEADYYCQVWDSSSDHLVFGGGTKLTVL
[2]
  Flow Delta activity (MedFI): 29500 MedFI
[3]
  ADCC Delta activity (%), A549: 1.31%
  ADCP Delta activity (%), A549: 12.8%

B10: AB-010147 (antibody, mouse IgG2a, V domains shown)
VH: QVQLQQWGAGLLKPSETLSLTCAVYGGSFSDYYWSWIRQPPGKGLEWIGEVNHRGSINYNNYNPSLKSRVTISVDTSKNQFSLKLTSVTAADTAVYYCAKPLRPHCTNGVCYSGDAFDIWGQGTMVTVAS
VL: SYVLTQPPSVSVAPGQTARITCGGNNIGSKNVHWYQQKPGQAPVLVVYDDSDRPSGIPERFSGSNSGNTATLTISRVEAGDEADYYCQVWDSSSDHLVFGGGTKLTVL
[1]
  ADCC EC50: 79.4 nM

B11: AB-010367 (antibody, V domains shown)
VH: QVQLQQWGAGLLKPSETLSLTCAVYGGSFSGYYWSWIRQPPGKGLEWIGEINHQGSINYNNYNPSLKSRVTISVDTSKNQFSLKLSSVTAADTAVYYCAKPLRPHCTNGVCYSGDAFDIWGQGTMVTVAS
VL: SYVLTQPPSVSVAPGQTARITCGGNNIGSKNVHWYQQKPGQAPVLVVYDDSDRPSGIPERFSGSNSGNTATLTISRVEAGDEADYYCQVWDSSSDHVVFGGGTKLTVL
[4]
  ADCC EC50: 42.7 nM
  ADCC Fold-improved (against AB-008873): 0.81 fold

B12: AB-010366 (antibody, mouse IgG2a, V domains shown)
VH: QVQLQQWGAGLLKPSETLSLTCAVYGGSFSGYYWSWIRQPPGKGLEWIGEINHQGSINYNNYNPSLKSRVTISVDTSKNQFSLKLSSVTAADTAVYYCAKPLRPHCTNGVCYSGDAFDIWGQGTMVTVAS
VL: SYVLTQPPSVSVAPGQTARITCGGNNIGSKNVHWYQQKPGQAPVLVVYDDSDRPSGIPEQFSGSNSGNTATLTISRVEAGDEADYYCQVWDSSSDHVVFGGGTKLTVL
[4]
  ADCC EC50: 28.9 nM
  ADCC Fold-improved (against AB-008873): 1.2 fold

B13: AB-009817 (antibody, mouse IgG2a, V domains shown)
VH: QVQLQQWGAGLLKPSETLSLTCAVYGGSFSDYYWSWIRQPPGKGLEWIGEVNHRGSINYNNYNPSLKSRVTISVDPSKNQFSLKLTSVTAADTAVYYCAKPLRPHCTNAVCYSGDAFDIWGQGTMVTVAS
VL: SYVLTQPPSVSVAPGQTARITCGGNNIGSKNVHWYQQKPGQAPVLVVYDDSDRPSGIPEQFSGSNSGNTATLTISRVEAGDEADYYCQVWDSSSDHLVFGGGTKLTVL
[5]
  ADCC Delta, A549 cells: 0
[6]
  Flow Delta: 0
  binding result: no binding (tested: tested up to 1 µM)

B14: AB-009812 (antibody, mouse IgG2a, V domains shown)
VH: QVQLQQWGAGLLKPSETLSLTCAVYGGSFSDYYWSWIRQPPGKGLEWIGEVNHSGSINYNNYNPSLKSRVTISVDPSKNQFSLKLTSVTAADTAVYYCAKPLRPHCTNGVCYSGDAFDIWGQGTMVTVAS
VL: SYVLTQPPSVSVAPGQTARITCGGNNIGSKNVHWYQQKPGQAPVLVVYDDSDRPSGIPEQFSGSNSGNTATLTISRVEAGDEADYYCQVWDSSSDHLVFGGGTKLTVL
[5]
  ADCC Delta, A549 cells: 41.1
  ADCC EC50 (nM), A549 cells: 51 nM
[6]
  EC50: 9.6 nM
  Flow Delta: 568000

B15: AB-009814 (antibody, mouse IgG2a, V domains shown)
VH: QVQLQQWGAGLLKPSETLSLTCAVYGGSFSDYYWSWIRQPPGKGLEWIGEVNHRGSINYNPSLKSRVTISVDPSKNQFSLKLTSVTAADTAVYYCAKPLRPHCTNGVCYSGDAFDIWGQGTMVTVAS
VL: SYVLTQPPSVSVAPGQTARITCGGNNIGSKNVHWYQQKPGQAPVLVVYDDSDRPSGIPEQFSGSNSGNTATLTISRVEAGDEADYYCQVWDSSSDHLVFGGGTKLTVL
[5]
  ADCC Delta, A549 cells: 36
  ADCC EC50 (nM), A549 cells: 62.8 nM
[6]
  EC50: 11.5 nM
  Flow Delta: 407000

B16: AB-009816 (antibody, mouse IgG2a, V domains shown)
VH: QVQLQQWGAGLLKPSETLSLTCAVYGGSFSDYYWSWIRQPPGKGLEWIGEVNHRGSINYNNYNPSLKSRVTISVDASKNQFSLKLTSVTAADTAVYYCAKPLRPHCTNGVCYSGDAFDIWGQGTMVTVAS
VL: SYVLTQPPSVSVAPGQTARITCGGNNIGSKNVHWYQQKPGQAPVLVVYDDSDRPSGIPEQFSGSNSGNTATLTISRVEAGDEADYYCQVWDSSSDHLVFGGGTKLTVL
[5]
  ADCC Delta, A549 cells: 58
  ADCC EC50 (nM), A549 cells: 12.5 nM
[6]
  EC50: 5.5 nM
  Flow Delta: 670000

B17: AB-009813 (antibody, mouse IgG2a, V domains shown)
VH: QVQLQQWGAGLLKPSETLSLTCAVYGGSFSDYYWSWIRQPPGKGLEWIGEVNHAGSINYNNYNPSLKSRVTISVDPSKNQFSLKLTSVTAADTAVYYCAKPLRPHCTNGVCYSGDAFDIWGQGTMVTVAS
VL: SYVLTQPPSVSVAPGQTARITCGGNNIGSKNVHWYQQKPGQAPVLVVYDDSDRPSGIPEQFSGSNSGNTATLTISRVEAGDEADYYCQVWDSSSDHLVFGGGTKLTVL
[5]
  ADCC Delta, A549 cells: 39.9
  ADCC EC50 (nM), A549 cells: 26 nM
[6]
  EC50: 6.8 nM
  Flow Delta: 578000
